System: P41676
Assay: SEC

## PK2 C181S/C211S (full-length PK2 from the baculovirus AcMNPV, stable mutant, C-terminal His-tag)
  percent in the monomer peak: monomer (62%)
